Key:
SELP815K 6-mer [1] = system: SELP815K 6-mer
SELP815K 6-mer [2] = biological target: SELP815K 6-mer; remark: listed apart in the source

Sequence of MMP-2 (P08253 110-660): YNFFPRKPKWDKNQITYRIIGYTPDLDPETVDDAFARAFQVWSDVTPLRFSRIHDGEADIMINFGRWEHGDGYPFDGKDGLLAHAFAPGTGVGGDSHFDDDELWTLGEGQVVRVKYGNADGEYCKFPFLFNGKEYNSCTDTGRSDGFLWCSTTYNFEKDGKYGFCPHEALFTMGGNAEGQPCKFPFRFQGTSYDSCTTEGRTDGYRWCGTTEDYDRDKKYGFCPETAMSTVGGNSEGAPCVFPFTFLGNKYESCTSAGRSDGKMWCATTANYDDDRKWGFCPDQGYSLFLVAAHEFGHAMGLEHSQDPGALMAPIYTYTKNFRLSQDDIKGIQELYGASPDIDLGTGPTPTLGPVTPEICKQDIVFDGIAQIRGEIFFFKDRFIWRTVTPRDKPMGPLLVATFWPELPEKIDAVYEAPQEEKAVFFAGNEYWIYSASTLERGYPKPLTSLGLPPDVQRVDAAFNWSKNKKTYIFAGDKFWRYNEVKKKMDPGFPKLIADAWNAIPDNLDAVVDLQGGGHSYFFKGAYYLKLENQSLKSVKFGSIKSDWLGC

Molecule	SDS-PAGE analysis of enzymatic digestion (SELP815K 6-mer [1])	Young's modulus of hydrogel (SELP815K 6-mer [1])	protein loss from hydrogel in the presence of MMPs (SELP815K 6-mer [1])	total release of 100 nm fluorescent nanoparticles from hydrogel at two weeks (no treatment 9.3%) (SELP815K 6-mer [1])	SDS-PAGE analysis of enzymatic digestion (SELP815K-MMPRS 6-mer)	higher protein loss from hydrogel compared to control (2 weeks, 10 nM MMP) (SELP815K-MMPRS 6-mer)	increase of nanoparticle release compared to control (SELP815K-MMPRS 6-mer)	loss in Young's modulus of hydrogel (SELP815K-MMPRS 6-mer)	percentage of total polymer per hydrogel lost (control about 24%) (SELP815K-MMPRS 6-mer)	total release of 100 nm fluorescent nanoparticles from hydrogel at two weeks (no treatment 8.2%) (SELP815K-MMPRS 6-mer)	soluble fraction release from hydrogel (elastase degradation) (SELP47K)	soluble fraction release from hydrogel (elastase degradation) (SELP415K)	soluble fraction release from hydrogel (elastase degradation) (SELP815K 6-mer [2])
MMP-9	SELP815K without the responsive sequence is not	there was no significant effect present in the standard SELP-815K polymer	SELP815K displayed statistically insignificant levels of increased protein loss in the presence of MMPs	MMP-2 and MMP-9 treatment conditions yielded release of 12.1% and 9.4%, respectively	SELP815K-MMPRS is digested by MMP-2 and MMP-9	63% and 44% higher protein loss compared to control	increases of 65% and 95% compared to control	MMP-9 affected a 24% loss	enzymatic digestion increasing this percentage to 39% and 35% for MMP-2 and MMP-9-induced degradation, respectively	treatment with MMP-2 and MMP-9 caused release of 13.5% and 16% respectively	–	–	–
MMP-2	SELP815K without the responsive sequence is not	there was no significant effect present in the standard SELP-815K polymer	SELP815K displayed statistically insignificant levels of increased protein loss in the presence of MMPs	MMP-2 and MMP-9 treatment conditions yielded release of 12.1% and 9.4%, respectively	SELP815K-MMPRS is digested by MMP-2 and MMP-9	63% and 44% higher protein loss compared to control	increases of 65% and 95% compared to control	–	enzymatic digestion increasing this percentage to 39% and 35% for MMP-2 and MMP-9-induced degradation, respectively	treatment with MMP-2 and MMP-9 caused release of 13.5% and 16% respectively	–	–	–
Human Leukocyte Elastase (protein) IVGGRRARPHAWPFMVSLQLRGGHFCGATLIAPNFVMSAAHCVANVNVRAVRVVLGAHNLSRREPTRQVFAVQRIFENGYDPVNLLNDIVILQLNGSATINANVQVAQLPAQGRRLGNGVQCLAMGWGLLGRNRGIASVLQELNVTVVTSLCRRSNVCTLVRGRQAGVCFGDSGSPLVCNGLIHGIASFVRGGCASGLYPDAFAPVAQFVNWIDSIIQ	–	–	–	–	–	–	–	–	–	–	SELP815K at 8 wt % is more resistant to degradation than SELP47K and SELP415K at 12 wt %	SELP415K appears to be the most sensitive to elastase degradation	SELP815K shows the lowest sensitivity to degradation

— patent US20150152165
